The values that follow come from patent publication US20220204643A1 (published 2022).

In assay [1] the target is T1, SNAP associated protein, transcript variant 1 (human, UniProt O95295 2-136).
T1 construct: HuProt array protein, full-length recombinant from yeast; also called SNAPIN
T1 sequence: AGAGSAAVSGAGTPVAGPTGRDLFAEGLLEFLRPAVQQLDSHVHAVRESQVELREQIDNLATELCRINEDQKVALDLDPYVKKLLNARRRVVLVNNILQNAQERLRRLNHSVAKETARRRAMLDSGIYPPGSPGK

The target of assay [2] is T2, membrane palmitoylated protein 2, transcript variant 3 (human, UniProt Q14168 1-576).
T2 construct: on protein array; also called MPP2
T2 sequence: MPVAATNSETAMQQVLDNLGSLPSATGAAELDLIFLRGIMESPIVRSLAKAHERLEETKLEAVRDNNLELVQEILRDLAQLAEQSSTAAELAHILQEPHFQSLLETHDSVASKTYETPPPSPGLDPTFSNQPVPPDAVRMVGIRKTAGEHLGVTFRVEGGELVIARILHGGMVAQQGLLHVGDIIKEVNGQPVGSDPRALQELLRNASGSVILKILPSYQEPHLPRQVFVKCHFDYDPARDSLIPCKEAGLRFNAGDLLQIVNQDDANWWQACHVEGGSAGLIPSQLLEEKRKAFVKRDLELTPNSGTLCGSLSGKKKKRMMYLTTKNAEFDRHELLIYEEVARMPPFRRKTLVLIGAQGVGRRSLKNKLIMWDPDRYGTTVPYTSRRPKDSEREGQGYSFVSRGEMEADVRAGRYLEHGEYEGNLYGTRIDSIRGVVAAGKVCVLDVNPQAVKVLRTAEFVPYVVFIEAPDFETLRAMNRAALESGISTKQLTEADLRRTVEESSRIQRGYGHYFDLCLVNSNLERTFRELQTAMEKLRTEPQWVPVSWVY
Briefly: protein array.

The target of assay [3] is T3, kelch like family member 40 (human, UniProt Q2TBA0 1-621).
T3 construct: on protein array; also called KLHL40
T3 sequence: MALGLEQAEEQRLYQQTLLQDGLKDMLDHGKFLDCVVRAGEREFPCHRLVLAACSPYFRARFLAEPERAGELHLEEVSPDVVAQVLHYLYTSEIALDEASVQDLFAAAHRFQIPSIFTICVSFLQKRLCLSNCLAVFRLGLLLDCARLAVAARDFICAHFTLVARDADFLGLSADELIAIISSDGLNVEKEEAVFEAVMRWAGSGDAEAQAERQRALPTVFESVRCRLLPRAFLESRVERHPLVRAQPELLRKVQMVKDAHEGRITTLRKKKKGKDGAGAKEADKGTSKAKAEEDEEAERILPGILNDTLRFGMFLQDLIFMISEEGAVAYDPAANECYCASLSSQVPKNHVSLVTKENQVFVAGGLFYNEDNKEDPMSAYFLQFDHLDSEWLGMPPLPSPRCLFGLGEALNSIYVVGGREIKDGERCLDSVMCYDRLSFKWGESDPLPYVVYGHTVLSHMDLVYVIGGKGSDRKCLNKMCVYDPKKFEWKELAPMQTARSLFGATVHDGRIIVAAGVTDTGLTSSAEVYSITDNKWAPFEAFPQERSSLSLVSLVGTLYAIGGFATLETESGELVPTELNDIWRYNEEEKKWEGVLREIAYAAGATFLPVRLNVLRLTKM
Briefly: protein array.

Assay [4] concerns the target T4, UTP6 small subunit processome component (human, UniProt Q9NYH9 1-597).
T4 construct: on protein array
T4 sequence: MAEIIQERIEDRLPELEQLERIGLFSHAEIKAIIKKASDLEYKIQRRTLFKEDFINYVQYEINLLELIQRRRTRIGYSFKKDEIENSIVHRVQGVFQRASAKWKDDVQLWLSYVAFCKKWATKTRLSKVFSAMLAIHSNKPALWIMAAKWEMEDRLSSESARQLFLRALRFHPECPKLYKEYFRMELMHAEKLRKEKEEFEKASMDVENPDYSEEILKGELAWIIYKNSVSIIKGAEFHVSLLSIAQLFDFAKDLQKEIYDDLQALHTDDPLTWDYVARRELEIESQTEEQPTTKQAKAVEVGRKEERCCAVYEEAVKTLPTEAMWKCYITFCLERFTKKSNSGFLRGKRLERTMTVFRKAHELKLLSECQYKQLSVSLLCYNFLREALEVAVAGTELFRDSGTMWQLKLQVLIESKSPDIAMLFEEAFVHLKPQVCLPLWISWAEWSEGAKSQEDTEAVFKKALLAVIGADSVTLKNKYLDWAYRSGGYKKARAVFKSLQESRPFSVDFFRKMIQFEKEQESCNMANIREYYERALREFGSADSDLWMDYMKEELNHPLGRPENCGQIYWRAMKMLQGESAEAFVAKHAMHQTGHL
Description: protein array.

Assay [5] has as its target T5, retinoid X receptor alpha, transcript variant 1 (human, UniProt P19793 1-462).
T5 construct: HuProt array protein, full-length recombinant from yeast; also called RXRA
T5 sequence: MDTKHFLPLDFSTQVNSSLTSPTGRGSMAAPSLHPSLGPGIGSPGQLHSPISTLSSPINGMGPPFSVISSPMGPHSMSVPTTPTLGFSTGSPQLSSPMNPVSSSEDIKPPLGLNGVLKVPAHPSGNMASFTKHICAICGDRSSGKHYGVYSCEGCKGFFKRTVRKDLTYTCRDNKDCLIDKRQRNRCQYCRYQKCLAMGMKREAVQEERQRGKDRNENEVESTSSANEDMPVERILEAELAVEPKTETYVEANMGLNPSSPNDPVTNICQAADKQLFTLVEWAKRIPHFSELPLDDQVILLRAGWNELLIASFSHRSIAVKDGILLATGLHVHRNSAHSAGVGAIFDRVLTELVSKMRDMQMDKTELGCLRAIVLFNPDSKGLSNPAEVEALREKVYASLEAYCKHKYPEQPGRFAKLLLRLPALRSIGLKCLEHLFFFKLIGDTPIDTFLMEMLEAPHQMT

Assay [6] deals with T6, zinc finger DHHC-type containing 1, transcript variant 1 (human, UniProt Q8WTX9 1-485).
T6 construct: HuProt array protein, full-length recombinant from yeast; also called ZDHHC1
T6 sequence: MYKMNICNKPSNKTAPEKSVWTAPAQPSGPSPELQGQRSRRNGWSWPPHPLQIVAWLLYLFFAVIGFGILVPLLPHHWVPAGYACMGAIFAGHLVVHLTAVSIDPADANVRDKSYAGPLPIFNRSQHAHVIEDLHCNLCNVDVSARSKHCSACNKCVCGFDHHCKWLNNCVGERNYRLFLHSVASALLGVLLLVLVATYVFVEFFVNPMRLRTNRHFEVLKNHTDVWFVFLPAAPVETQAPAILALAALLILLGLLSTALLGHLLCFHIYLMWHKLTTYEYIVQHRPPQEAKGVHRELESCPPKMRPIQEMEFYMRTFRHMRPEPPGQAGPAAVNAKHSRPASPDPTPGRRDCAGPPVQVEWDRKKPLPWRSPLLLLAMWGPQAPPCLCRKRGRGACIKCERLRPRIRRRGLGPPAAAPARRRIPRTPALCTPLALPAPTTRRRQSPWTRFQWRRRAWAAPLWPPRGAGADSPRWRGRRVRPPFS

B1: TBLA1006 (antibody, V domains shown)
VH: VQLVDSGGGLVQPGRSLRLSCAASGFVFDDYAMHWVRQVPGKGLEWVSGISWNSVSIGYADSVKGRFTISRDNAKNSLYLQMNSLRPEDAALYYCVKSFSAEYYYYYYGMDVWGQGTTVTVSS
VL: LYVLTQPPSVSVAPGTTAWISCGGNNIGIKSVHWYQQKPGQAPLLVISYDSDRPSVIPERFSVSNSGNTVTLTISRVEAGDEADYYCQVWDNGHSHWVFGGGTKLTVLG
notes: detected with anti-human IgG Fc
As to B1, the binding result in assay [1] is “binds”.

B2: TBRE1012 (antibody, V domains shown)
VH: QVQLQESGPGLVKPTQTLSLTCTVSGGSISSGSYYWNWIRQPAGKGLEWIGNIYTSGNTDYNPSLKSRVTISLDTSKNQVSLNLTSVTAADTAVYYCATTPSSSWYWYFDPWGQGTLVTVSS
VL: DLQMTQSPSSLSASIGDRVTITCRASQSISTYFNWYQQKPGKAPKLLIYAASSLQSGVPSRFSGSGSGTDFTLTITSLQPEDFATYYCQQTYSNPWTFGQGTKVDFKR
notes: VH/VL only
For B2, the binding result in assay [2] and in assay [3] was “binds” throughout.

B3: TUCE1005 (antibody, V domains shown)
VH: QVQLQESGPGLVKPSETLSLTCTVSGGSISSYYWSWIRQPAGKGLEWIGRIYTSGSTNYNPSLKSRVTMSVDTSKNQFSLKMSSVTAADTAVYYCARGELLFDHWGQGTLVTVSS
VL: not shown
notes: VH/VL tied via antigen in summary, not by name in this stretch
Take B3: the binding result in assay [4] is “binds”.

B4: TBLA1004 (antibody, V domains shown)
VH: QITLKESGPTLVKPTQTLTLTCTFSGFSLSTSGVGVGWIRQPPGKALEWLALIYWDDDKRYSPSLKSRLTITKDTSKNQVVLTMTNMDPVDTATYYCAHRAIVGLFDYWGQGTLVTVSS
VL: PSVLTQPPSASGTPGQRVTISCSGSSSNIGSNYVYWYQQLPGTAPKFLIYRNNQRPSGVPDRFSGSKSGTSASLAISGLRSEDEADYYCAAWEDSLSGPVFGGGTKLTVL
notes: as for B1
Turning to B4, the binding result in assay [5] is on record as “binds”.

B5: TBLA1003 (antibody, V domains shown)
VH: EVQLVESGGGLIQPGRSLRLSCAASGFTFEDYAMHWVRQAPGKGLEWVSGISWNSGNIGYADSVKGRFTISRDNAKNSLYLQMHSLRPEDTALYYCAKDINFFGLGTGGGAMDVWGQGTTVTVSS
VL: DIQMTQSPSYVSASVGDRVTITCRASQGIDVWLAWYQQKPGKAPKLLIYTASSLQSGVPSRFSGSGGGTEFTLTISSLQPEDFATYYCQQSNSFPGTFGPGTKVDVKR
notes: as for B1
With B5, in assay [6], the binding result is listed as “binds”.
